The target of test [1] is biotinylated SARS-CoV-2 RBD (SARS-CoV-2, UniProt P0DTC2). The test can be described thus: cell-based ACE2 blocking assay (plate, streptavidin-HRP).
The target of test [2] is T1, S1 subunit of SARS-CoV-1 Spike (SARS-CoV-1 (SARS-CoV), strain , UniProt P59594).
T1 construct: source: bought: Sino Biological
The test can be described thus: ELISA.

The target of the next test is SARS-CoV-2 RBD-Fc (SARS-CoV-2, strain  …, UniProt P0DTC2). The test can be described thus: SPR. The settings on record: both partners purified.
In test [3] the target is deglycosylated SARS-CoV-2 RBD (SARS-CoV-2, UniProt P0DTC2). The test can be described thus: crystal structure. Conditions: both partners purified.

B1: EY6A IgG (antibody, V domains shown)
VH: EVQLVESGGGVVQPGRSLRLSCAASAFTFSSYDMHWVRQAPGKGLEWVAVISYDGSNKYYADSVKGRFTISRDNSKNTLYLQMNSLRAEDTAVYYCAKDGGKLWVYYFDYWGQGTLVTVSS
VL: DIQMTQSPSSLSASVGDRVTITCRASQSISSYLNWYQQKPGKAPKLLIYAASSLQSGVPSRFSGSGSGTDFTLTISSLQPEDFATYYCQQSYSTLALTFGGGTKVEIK
notes: also called antibody EY6A; EY6A mAb; copies: 2 + 2
The IC50 is the concentration that inhibits the measured activity by half. B1: the IC50 in test [1] is 54 nM. Further, the binding result in test [2] is listed as “binds”.

B2: EY6A Fab (digested from IgG with papain) (Fab, V domains shown)
VH: EVQLVESGGGVVQPGRSLRLSCAASAFTFSSYDMHWVRQAPGKGLEWVAVISYDGSNKYYADSVKGRFTISRDNSKNTLYLQMNSLRAEDTAVYYCAKDGGKLWVYYFDYWGQGTLVTVSS
VL: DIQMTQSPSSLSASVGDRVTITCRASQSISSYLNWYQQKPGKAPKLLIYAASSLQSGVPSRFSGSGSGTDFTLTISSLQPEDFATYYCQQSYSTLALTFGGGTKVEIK
notes: also called Fab-EY6A; source: digested from ExpiCHO-made IgG with papain (Pierce Fab Preparation Kit)
Broadly, the Kd is the concentration at which binding is half-saturated. Lower therefore signals a tighter complex. In the test with SARS-CoV-2 RBD-Fc, B2 showed a Kd of 2 nM.

B3: nanobody (Nb) used as crystallisation chaperone (VHH)
VHH: QVQLVESGGGLMQAGGSLRLSCAVSGRTFSTAAMGWFRQAPGKEREFVAAIRWSGGSAYYADSVKGRFTISRDKAKNTVYLQMNSLKYEDTAVYYCAQTHYVSYLLSDYATWPYDYWGQGTQVTVSS
As to B3, in test [3], the binding result was “binds”.

The values above are taken from doi:10.1101/2020.06.12.148387 (bioRxiv, 2020).
